Experiment: yeast display, Sf9 membrane polyspecificity reagent, FACS + sequencing; frameworks hold sequencing errors
In short: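 Nanobodies from a synthetic yeast display library (Saccharomyces cerevisiae BJ5465), induced 36–48 hours with galactose, were stained 1 hour at 4 °C with 10% biotinylated, detergent-solubilized Sf9 membrane reagent, enriched on streptavidin microbeads, then FACS-sorted. Anti-HA (expression) and streptavidin (reagent binding) fluorescence set low and high (top ~1%) gates. Polyreactivity labels come from the gate of origin. Genes were colony-PCR amplified, MiSeq 2 × 250 sequenced and filtered by CDR length.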

Row | Sequence | polyreactivity (PSR sort gate)
1 | QVQLVESGGGLVQAGGSLRVSCAASGFTFDYYAMGWYRQAPGKEWEFVAAISSRGDDTYYADSVKGRFTISRDNAKNTVYLQMNSLKPEDTAVYYCAKVWRYGRYEYGYWGHGTQVTVSS | high polyreactivity
2 | QVQLVESGGGLVQAGGSLRVSCAASGFTFGYYGMGWYRQAPGKERELVAAISWSGGSTYYADSVKGRFTISRDNAKYTVYLQMNSLKPEVTAVYYCNADYAGFYQRRYIEDDYWGQGTQVTVSS | low polyreactivity
3 | QVQLVESGGGLVQAGGSLRVSCAASGFTFYQYGMGWYRQAPGKERELVATSTSGGRTNYADSVKGRFTISRDNAKNTVYLQMNSLKPEDTAVYYCNKLPYYPRVGRIGRYYYWGQGTQVTVSS | high polyreactivity
4 | QVQLVESGGGLVQAGGSLRVSCAASGINFDYYVMGWYRQAPGKERELVAAISRSGDRTNYADSVKGRFTSSRDHEKYTVFLLMNSLKPEDTAVYYCAARVRIRGGGYDYWGQGTQVTVSS | high polyreactivity
5 | QVQLVESGGGLVQAGGSLRVSCAASGNTFGPYAMGWYRQAPGKERELVAAISSGGSTNYADSVKGRFTISRDNAKNTVYLQMNSLKPEDTAVYYCARDAFSGSDFSYASIEYDYWGQGTQVTVSS | low polyreactivity
6 | QVQLVESGGGLVQAGGSLRVSCAASGRIFTIYAMGWYRQAPGTEREVVAAISDRGTRTYYADSVKGRFTISRDNAKNTVYVQMNSLKPEDTALYYCATDALYTYGYDYWGQGSQVTVSS | low polyreactivity
7 | QVQLVESGGGLVQAGGSLRVSCAASGRIFVDYAMGWYRQAPGKERELVAAISRRGGSTYYADSVKGRFTISRDNAKNTVYLQMNSLKPEDTAVYYCNALVNSGGGYGATEYDYWGQGTQVTVSS | high polyreactivity
8 | QVQLVESGGGLVQAGGSLRVSCAASGRILPFYAMGWYRQAPGKERELVATISWTSDSTYYADSVKGRFTISRDNAKNTVSLQMNSLKPEDTAVYYCAREYTYTYASTVIYDHWGQGTQVTVSS | low polyreactivity
9 | QVQLVESGGGLVQAGGSLRVSCAASGRSFWTDTMGWYRQAPGKEREFVAAITFGDGSTSYADSVKGRFTISRDNAKNTVYLQMNSLKPEDTAVYYCAKRWRRRFVDVWSLYDYWGQGTQVTVSS | low polyreactivity
10 | QVQLVESGGGLVQAGGSLRVSCAASGRTCRYYAMGWYRQEHGTEREWVAVISWSGGTTRYADSVKGRFTISRDNAKNTVYIQMNSLKPEDTAVYYCAARVSVWYNYWGQGTQVTVSS | high polyreactivity
11 | QVQLVESGGGLVQAGGSLRVSCAASGRTFARYALAWYRQAPGKERELVAAISRGGTTNYADSVKGRFTISRDNAKNTVYLQMNSLKPEDTAVDYCNRDFHLSHLSSARLDYWGQGTQVTVSS | low polyreactivity
12 | QVQLVESGGGLVQAGGSLRVSCAASGRTFGRYAMGWYRQATGKERELVAAISYSGGSTYYADSVKGRFTISRDNAKNNVYLQMNSLKPEDTAVYYCAAYYSGKDGYWGQGTQVTVSS | high polyreactivity
13 | QVQLVESGGGLVQAGGSLRVSCAASGRTFWTNAMGWYRQAPGKEREILAAISWRGASTFYADSVKGRFTISRDNAKNTVYLQMNSLKPEDTAVYYCAAQSRTRSFYGKYDSWGQGTQVTVSS | low polyreactivity
14 | QVQLVESGGGLVQAGGSLRVSCAASGSIFIRYAMGWYRQAPGKERELVAAIRSSGGSTYADSVKGRFTISRDNAKNTVYLQMISLKPEDTAVYYCAAGRSSKNSYSYPYYYWGQGTQVTVSS | high polyreactivity
15 | QVQLVESGGGLVQAGGSLRVSCAASGSIFSYYAMGWYRQAPGKEREFVAAISWSGGSTYYADSVKGRFTISRDNAKNTVYLQMNSLKPEDTAVYYCAAELSLSWLVPDVPYYYWGQGTQVTVSS | low polyreactivity
16 | QVQLVESGGGLVQAGGSLRVSCAASGSIFYGNAMGWYRQAPGKARELVAAISNVGRTDYADSVKGRFTISRDNAKPTVYLQMNSLKPEDTADYSCAAGVYSGSNRYYAPRSWFGYYYWGQGTQVTVSS | low polyreactivity
17 | QVQLVESGGGLVQAGGSLRVSCAASGSIFYSNAMGWYRQAPGKERELVAAITRRGGSTYYADSVKGRFTISRDIATNPVYLQMNSLIPEDTAVYYCAARSKTSNLFNYWGQGTQVTVSS | high polyreactivity
18 | QVQLVESGGGLVQAGGSLRVSCAASGSNFPRYAMGWYRQAPGKERELVAAISGRGGSTYYADSVKGRFTISRDNAKNTVYLQMNSLKPEDTAVYYCNAVGHTSIRRALDILDYWGQGTQVTVSS | high polyreactivity
19 | QVQLVESGGGLVQAGGSLRVSCAASGSTFLVYARGWYRQAPGKERELVAAISWSGGSTYYADSVKGRFTISRDNAKKTVYLQMNSLKPEDTAVYYCNAEGIYRQPRGYVYRYDYWGQGTQVTVSS | high polyreactivity
20 | QVQLVESGGGLVQAGGSLRVSCAASGSTFRKYAMGWYRQAPGKEREFVAAITSSGGSTYYADSVKGRFTISRDNAKNTLYLQMNSLKPEDTAVYYCAARGDSVSTAYNYWGQGTQVTVSS | high polyreactivity
21 | QVQLVESGGGLVQAGGSLRVSCAASGSTFSQYAMGLYRQAPGKEREFVAVITLSVVSTSYADSVKGRFTFSRDNAKNTVYLQMNSQKPEDTAVYYCNKDSGVRGPGYGYWGQGTQVTVSS | low polyreactivity
22 | QVQLVESGGGLVQAGGSLRVSCAASGSTFSYNAMGWYRQAPGKERELVASINSRGGTTYYADTVKVRFTISRDNAKNTVYLQMKSLKPEDTAVYYCATDVYRLGEYDYWGQGTQVTVSS | low polyreactivity

Row | Sequence | polyreactivity (PSR sort gate)
23 | QVQLVESGGGLVQAGGSLRVSCAASGSTFTAYAMGWYRQAPGKERELVAAINWSGGTTYYADSVKGRFTISRDNAKNTVYLQMNSLKPEDTAVYYCAVDGNFFGEVRPYDYWGQGTQVTVSS | low polyreactivity
24 | QVQLVESGGGLVQAGGSLRVSCAASGSTFTGYAMGWYRQAPGKERELVAAISRGGSTNYADSVKGRFTISRDNAKNTVYLQMNSLKPEDTAVYYCAAETYYFGYGYWGQGTQVTVSS | high polyreactivity
25 | QVQLVESGGGLVQAGGSLRVSCAASGSTFTNYAMGVYRQAPRKERELIARITYNVGRTYYADSVKGRFTISRDNAKNTVYLQMNSLKPEDTAVYYCAAGVGWRYRVRWYYYLGDYWGQVTQVTVSS | high polyreactivity
26 | QVQLVESGGGLVQAGGSLRVSCAASGSTFYYNAMGWYRQATGKERELVAAITRSAGSTYYADSVKGRFTISRDNAKNTVYLQMNSLKPEDTAVYYCNARYSFYGSYWTSGKYDYWGQGTQVTVSS | high polyreactivity
27 | QVQLVESGGGLVQAGGSLRVSCAASGSTLGRNTMGWYRQAPGKVRELVAAITITDSTNYADSVKGRFTISRDNAKNTVYLQMNSLKPEDTAVYYGAKRRYYSTPRWGSSTYDYWGLGTQVTVSS | low polyreactivity
28 | QVQLVESGGGLVQAGGSLRVSCAASGSTLVFNAMGWYRQAPGKEREIVAAISKSGGSRYYADSVKGRFTISRDNAKNTVYLQMNSLKPEDTAVYYCAPDSGGPGYAMDYWGQGTQVTVSS | high polyreactivity
29 | QVQLVESGGGLVQAGGSLRVSCAASGYIFTPYAMGWYRQAPGKERELVAAISSSTVRTFYADSVKGRFTISRDNAKNTVYLQMNSLKPEDTAVYYCAARGYWGQGTQVTVSS | high polyreactivity
30 | QVQLVESGGGLVQAGGSLRVTCAASGRIFQRYVMGWYRQAPGKERELVAAITWSGGSTYADSVKGRFTISRDNAKNTVYLQMNSLKTEDTAVYYFAARVPYNYWGMYYLYDYWGQGTQVTVSS | high polyreactivity
31 | QVQLVESGGGLVQAGGSLRYICAASGFTFRPKVMGWYRQAHGKERELVAAISGSGGSTYYADSVKGRFTISRDNAKNTVYLQMNSLKPEDTAVYYSKDFPAFYDFGYWGQGTQVTVSS | high polyreactivity
32 | QVQLVESGGGLVQAGGSLSISCAASGRTFPEYGMGWYRQAPGKDREFVAAISTRGGSTYYANSVKGRFTISGDNAKNTVYLQMNSLKPEDTAVYYCAKVYDRSGGDYWGQGTQVTVSS | low polyreactivity
33 | QVQLVESGGGLVQAGGSLSLICAASGFTFLIYAMGWYRQAPGKERELVAAITWRGSGTYYADSVKGRFTISRDNAKNTVYLQMNSLKPEDTAVYYCAARTARRTYDYWGQGTQVTLSS | low polyreactivity
34 | QVQLVESGGGLVQAGGSLSLICAASGRIFLRNDMGWYRQAPGKERELVAGISSDGSTYYADSVKGRFTISRDNAKNTVYLQMNSLKPEDTAVYYCAAERWGNPTDYQFWRPYDYWGQGTQVNVSS | low polyreactivity
35 | QVQLVESGGGLVQAGGSLSLICAASGSTFTENAMGWYRQAPGKERELVAVITSSDGTTYYADSVKGRFTISRDNAKNTVYLQMISLKPEDTAVSYCAADPYYFWWRYDFWGQGTQVTVSS | low polyreactivity
36 | QVQLVESGGGLVQAGGSLSLRCAASGRTLDVYAMGWYRQAPGKERELVARITSGGSTNYADSVKGRFTISRDNAKNTVYLQMNSLKPEDTSVYYCNAVVYTRPYTRPRYRYDYWGQGTQVTVSS | high polyreactivity
37 | QVQLVESGGGLVQAGGSLSLRCAGSGRTFRTYTMGWYRQARGKERELVAAISWSGSSTYYADSVKGRVTISRDHAKNTVYLQLNSLKPEDTAVYYCAARYVSRRFLGYYYWGQGTQVTVSS | high polyreactivity
38 | QVQLVESGGGLVQAGGSLSLSCAASAHTFVTNAMGWYRQAPGKERELVAAISRSGGHTYYADSVKGRFTISRDNAKNTVYLQMNSLKPEDTAVYYCAKTRGPRTLYDYWGQGTQVTVSS | high polyreactivity
39 | QVQLVESGGGLVQAGGSLSLSCAASASTFRYYTMGWYRQAPGKERELVAAISWTGGGTYYADSVKGRFTISRDNAKNTVYLQMNSLKPEDTAVYYCAASYYYELFRFDYWGQGTQVTVSS | high polyreactivity
40 | QVQLVESGGGLVQAGGSLSLSCAASGFIFDYYTMGWYRQAPGKEREFVAAINRRGDITYYADSVKGRFTISRDNAKNTVYLQMNSLKPEDTAVYSCAATLTWSSRYEYGYWGQGTQVTVSS | low polyreactivity
41 | QVQLVESGGGLVQAGGSLSLSCAASGFTITSYAMGWYRQAPGKERELVAAINSGGSTNYADSVKGRFTISRDNAKNTVYLQMNSLIPEDNAVYYCAAKRRSYRITYVGVGYKYGYWGLGTQVTVSS | high polyreactivity
42 | QVQLVESGGGLVQAGGSLSLSCAASGGIFAYNAMGWYRQAHGKEREWVATISSGVSTNYADSVKGRFTISRDNAKNTVYLQMNSLKPEDTAVYYCAAAIFITGYGSYGYWGQGTQVTVAS | low polyreactivity
43 | QVQLVESGGGLVQAGGSLSLSCAASGIIIYEYAMGWYRQAPGKEMELVAAISNGGSTYYADSVKGRFTISRDNAKNTVYLQMNSLKPEDTAVYYCAARGYFDALFDYWGQGTQVTVSS | low polyreactivity

From the nanobody polyreactivity screen of Harvey et al. (2022)
